Literature values in article PMC7103376.

Target: 3CLpro (SARS coronavirus) (UniProt P0C6X7)

3CLpro (from UniProt P0C6X7)
Kd: < 100 nM
